Measured values: the DeepSol protein solubility set

Experiment: soluble on expression in E. coli; label from the status in PepcDB or PDB records

Row | Sequence | soluble on expression in E. coli
1 | MGHHHHHHSHMIFLSTLFWYNKLMNKSTFSLNDTAWVDFYQLQNPRQNENYTFPAIIICPGGGYQHISQRESDPLALAFLAQGYQVLLLNYTVMNKGTNYNFLSQNLEEVQAVFSLIHQNHKEWQINPEQVFLLGCSAGGHLAAWYGNSEQIHRPKGVILCYPVTSFTFGWPSDLSHFNFEIENISEYNISEKVTSSTPPTFIWHTADDEGVPIYNSLKYCDRLSKHQVPFEAHFFESGPHGVSLANRTTAPSDAYCLPSVHRWVSWASDWLERQIKN | soluble
2 | MAPLLSLCMIVKNEAHQLRRCLQSVQPWVDEIIIVDTGSTDGTIAIACEFTPHVHAVAWQGDFAAARNAALAQATGEWVFYIDADEELVVTDAHWQDQLTAPGAHAINQWSLLRREQSSDRNWSEFWNVRFGRRFPDLHFAGALHEQLCYREREAVVGELQGVYLIHHNQQSQEQFLAKIRDRNIPILETMVQQGDRRLQNLVCLGDHYAACGDSDRSQAWYEQALEEIASAVEQGILPRETTWLRHLLFWVSYRAFEAKDYETAQYYLSYGLRFFDRYPPLLYVAGLFVFELGLPRGALPYFHRCLDLFEAGSYDRTEPFDRQWMTTQPAYSLGYTYMTLQERDRAIAYFQKTLKFNPDYPPAQMYLEQLLRASANQGLEHHHHHH | not soluble
3 | MTGSDISHILKEGELEKRSDNLLQFWKRKTCVLTTDSLNIYTDQQKKNKSKELKLQSIKKVDCVEHTGKFVYFTIVTTDNKEIDFRCSDEKNCWNAVIAIALVNFQNRKAIQGFKTQKESENTSLGQQERCMARAP | not soluble
4 | MDEEKIVLIGNESDLLHCGYNFALRAGGKRYPSAAHYTHYQILMSLNLPETAVEELLCTNSCDVHQKALVILQENMPDGHTINSLAAYLSESLRSYSIHALQLRAESDKDFEKTLMKTNEALLIVCDEKNPQLGIGMNDKTFMEWMAKEKADSRQISYWMKNEHTKPADLGQNKLGQYLMWLRFEIRERKKQGILTRPVVEVAGLSTDKDDEPIMISINDLVISLEGIFRPLSNYYAFPFEMKRERYRSVEHYAYEKLFNSLKLDEKAIEKIQTTPAPLNVPVVASKLLRKLEINPETIAEKTSKMDRWRQSAMKHKIYHNEYLQQLLLSTGSAILIDSSLGDPLWTCGATEVELQHLLTKSYVTPEKLVGWMLDGEETNTPKSVRHLYGNKSGLLLMELREKLSLQTTSRIPLVKLSKMNLNPLSGIVTPNVICFTPESVFHPLYPAEIRCSADGPPLPSPVHYVATQAAKFLSMNQEDTEYILEGPSSIQCWSRLHEVIESRGRGLELEQTWWMDKRMQFIKESLQLLLEQHPALLRALLDTGDSMLVYCSRFSSMDAELSMGMREMDFRYWLQEVDLTTKQLIELCTRPMAFRPPYIGGNRLGMILMELRREFVLQGVFPQQLPELQLTADSILGSNSPTENFMTSEYFDILQPWNYTALWINPLFLLAKDGNQEAMAQCTRIKTAPRMVTIDDEKVTDIVENLVNDETQEEALNSIAPEDLRAVFMKLCARLRGKIETLDRQSMELSMVAMETHRLQSIRRSLADTAERAETEGPSSSTGPSISAPPIPSRPGHSNYRMAAGRERDREEEREKDRERLQSQLSTSSSGPQGSASRKERMEYKIPTTSRRKFGKDRDRLPEKSSSDRGRDKHLDTPTKKRVNQSPPSRKAAPSPAKKPAISTSTPAVVVPPKPKRDPEEELSDGEILSTDEEDN | not soluble
5 | MVELVISPSLTVNSDCLDKLKFNRADAAVWTLSDRQGITKSAPLRVSQLFSRSCPRVLPRQPSTAMAAYGQTQYSAGIQQATPYTAYPPPAQAYGIPSFSTSPTGQSPYTYQMHGTTGFYQGGNGLGNAAGFGSVHQDYPSYPGFPQSQYPQYYGSSYNPPYVPASSICPSPLSTSTYVLQEASHNVPNQSSESLAGEYNTHNGPSTPAKEGDTDRPHRASDGKLRGRSKRSSDPSPAGDNEIERVFVWDLDETIIIFHSLLTGTFASRYGKDTTTSVRIGLMMEEMIFNLADTHLFFNDLEDCDQIHVDDVSSDDNGQDLSTYNFSADGFHSSAPGANLCLGSGVHGGVDWMRKLAFRYRRVKEMYNTYKNNVGGLIGTPKRETWLQLRAELEALTDLWLTHSLKALNLINSRPNCVNVLVTTTQLIPALAKVLLYGLGSVFPIENIYSATKTGKESCFERIMQRFGRKAVYVVIGDGVEEEQGAKKHNMPFWRISCHADLEALRHALELEYL | not soluble
6 | MDPQGYFLWYQVEMPEDRVNDLARELRIRDNVRRVMVVASTTPGRYEVNIVLNPNLDQSQLALEKEIIQRALENYGARVEKVEELGLRRLAYPIAK | soluble
7 | GPGSSISNLSMQTHAARMRTFMYWPSSVPVQPEQLASAGFYYVGRNDDVKCFCCDGGLRCWESGDDPWVEHAKWFPRCEFLIRMKGQEFVDEIQGRY | soluble
